This note sets out measurements from PMC11389776, “Positive allosteric modulation of a GPCR ternary complex” (Science Advances, 2024).

As a reminder, the pKB is −log10 of the KB, conventionally taken in molar units.

The target of experiment [1] is T1, M2 mAChR (Homo sapiens, UniProt P08172, DEL226-389).
T1 construct: made in house; host or cells: Sf9 insect cells (receptor, baculovirus); Trichoplusia ni Hi5 cells (G protein); E. coli BL21(DE3) (cMSP1D1 scaffold)
T1 sequence (P08172 with tags, fused parts or gaps DEL226-389): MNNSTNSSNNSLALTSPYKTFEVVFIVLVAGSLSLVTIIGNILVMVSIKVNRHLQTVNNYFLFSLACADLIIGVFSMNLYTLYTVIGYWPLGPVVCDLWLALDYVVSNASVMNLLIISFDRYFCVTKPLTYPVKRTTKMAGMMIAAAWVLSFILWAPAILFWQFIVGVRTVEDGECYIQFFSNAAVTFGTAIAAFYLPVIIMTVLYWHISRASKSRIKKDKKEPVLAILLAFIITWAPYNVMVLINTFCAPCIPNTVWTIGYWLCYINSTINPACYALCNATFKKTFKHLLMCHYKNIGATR
The experiment is described as follows: [3H]-NMS interaction binding with LY211 and/or G protein at M2 mAChR nanodiscs (full interaction and titration). To be noted: Titration against KD concentration of [3H]-NMS, ATCM. As to the method: (§1) The affinity of [^3H]-NMS for M2 mAChR in nanodiscs, as well as the concentration of receptor in nanodiscs, was determined through saturation binding with [^3H]-NMS. M2 nanodiscs were incubated with a range of concentrations of [^3H] […] Membrane equilibrium binding experiments were performed with 15 μg of membrane expressing the WT hM2 mAChR in a 300-μl reaction volume of binding buffer with or without 100 μM Gpp[NH]pp in deep 96-well plates for 6 hours at RT. […] For all radioligand binding experiments, nonspecific binding was defined by 10 μM Atr and the assay was terminated through rapid filtration through Whatman GF/B filter plates using a 96-well harvester (PerkinElmer). Filter plates were dried overnight, and radioactivity was determined by adding 40 μl of MicroScint-O scintillation fluid and counting in a MicroBeta^2 Plate Counter (PerkinElmer Life Sciences).
(§2) All data were analyzed using GraphPad Prism 9 (GraphPad Software, San Diego, CA). […] For competition binding experiments between [^3H]-NMS and a range of concentrations of unlabeled orthosteric agonist at M2 mAChR nanodiscs in the presence of G protein and for competition binding at M2 mAChR membranes, data were fit to a two-site competition binding model or a one-site competition binding model. […] Monoexponential decay and one-phase association equations were fit to the radioligand dissociation and association data at M2 mAChR nanodiscs.

Experiment [2] concerns the target T1, M2 mAChR. The experiment is described as follows: [3H]-NMS competition binding at M2 mAChR nanodiscs with or without Gi1 protein. As to conditions: 1:2000 molar ratio M2 mAChR:G protein, [3H]-NMS competition binding. As to the method:
as §1, §2

Experiment [3] addresses M2ΔICL3 mAChR (Flag-M2ΔICL3-His) reconstituted into cMSP1D1 nanodiscs (human) (UniProt P08172). As to the kind of experiment: radioligand binding; Gi1 heterotrimer titrated (R:G ratios plotted as molar concentration) against a KD concentration of [3H]-NMS at M2 mAChR nanodiscs; affinity for the NMS-bound receptor from the allosteric ternary complex model (ATCM); 20 mM Hepes pH 7.5, 100 mM NaCl, 10 mM MgCl2, 0.5% BSA; 6 hours at RT; filtration. As to conditions: scale: negative logarithm of the equilibrium dissociation constant.

Experiment [4] has the same target.

As for “G protein heterotrimer: purified WT G protein heterotrimer (Gαi1β1γ2)”, in the experiment with M2 mAChR [1], the “Log α[3H]-NMS” value was −0.55 ± 0.16 (10) and the pKB is listed as 7.37 ± 0.22 (10). The “Log α[3H]-NMS” value with M2 mAChR [1] (listed as Gi1) was −0.55 ± 0.16.
In the case of “Gq: purified heterotrimeric G protein, Gq α subunit with Gβ1γ2”, in the experiment with M2 mAChR [2], the “effect of G protein heterotrimer on ACh affinity” value is “could not mediate any change in ACh affinity”.
Consider “WT G protein heterotrimer Gαi1β1γ2 (from UniProt P63096 1-354; P62873 1-340; P59768 1-71) (complex)”, for which the pKB in experiment [3] stood at 7.37. In experiment [4], the FracHi: fraction of receptors in the high-affinity state for ACh, [3H]-NMS competition binding at M2 mAChR nanodiscs, receptor:G protein molar ratio 1:0 to 1:2000 (highest at 1:2000) came to 1; the FracHi: fraction of receptors in the high-affinity state for Ipx, [3H]-NMS competition binding at M2 mAChR nanodiscs, receptor:G protein molar ratio 1:0 and 1:500 to 1:2000 (highest at 1:2000) turned out to be 0.91; the FracHi: fraction of receptors in the high-affinity state for Pilo, [3H]-NMS competition binding at M2 mAChR nanodiscs, receptor:G protein molar ratio 1:0 and 1:500 to 1:2000 (highest at 1:2000) was 0.73.
